# Laboratory results published in the supplement of paper PMC7125110.
# ± gives the standard error. Fewer inactive variants are shown than the library holds.
# B1: glmS ribozyme (parent)
# chain: AUAAAAGCGCCAGAACUACAGAAAUGUAGUUGACGAGGAGGAGGUUUAUCGAAUUUUCGGCGGAUGCCUCCAAA
# Variants of: B1
# Experiment: self-cleavage kobs at 640 uM GlcN6P; higher = faster cleavage; RNA array
# Details: with glucosamine-6-phosphate
# In short: (§1)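 Tiles of sequenced MiSeq chips were imaged over ~14 h at 37 °C. On them, barcoded ribozyme variants had been transcribed in situ by E. coli RNA polymerase and were tracked via a hybridised Cy3 probe while glucosamine-6-phosphate (40 μM to 10 mM) in HEPES/KCl/Mg(OAc)2 buffer flowed in. Per-tile medians, normalised to baseline and to non-cleaving reference variants, were fit to one- or two-exponential decays for kobs, and weighted Michaelis–Menten fits gave kcat and KM.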
row,Variant,self-cleavage kobs at 640 uM GlcN6P [s⁻¹]
1,G35A G59A G62U,< 1e-05
2,A12U A48U C68A C70G,< 1e-05
3,A6G C10U A14G C34U U46G U57A,< 1e-05
4,A6C G41A U55C U65G,< 1e-05
5,G41C U47A U56C,< 1e-05
6,C11A A14U A15G G35C U45A G60U,< 1e-05
7,G40C G44C C61U,< 1e-05
8,A33G C34U A42G G51U C58U G59C,< 1e-05
9,U46G U49C U55G,< 1e-05
10,C16A A53G G62A,< 1e-05
11,G7A G13C G62U,< 1e-05
12,C10U G44U U54G U55C,< 1e-05
13,G7A C10U C16U U65C,< 1e-05
14,C11G U31G A39C G41C,< 1e-05
15,G7U G38U G40U,< 1e-05
16,U30C G43A C71U,< 1e-05
17,G9A C10G C58U,< 1e-05
18,G37A A42C C61A,< 1e-05
19,G29A U46A,0.000116 ± 2.5e-05
20,A15G G29U C70G,0.000143 ± 5e-05
21,A14C C16U A36G,< 1e-05
22,C8G G32C G38C U54G,< 1e-05
23,G32C G51C,< 1e-05
24,U30C G41C C71U,< 1e-05
25,G29U A39G A53U,0.00124 ± 0.00019

row,Variant,self-cleavage kobs at 640 uM GlcN6P [s⁻¹]
1,A14G A36U G41A,< 1e-05
2,C10U A14G U69A,4.59e-05 ± 2.2e-05
3,A12U C16U A33C,0.000251 ± 4.5e-05
4,G40U U45C C67G,4.79e-05 ± 1.9e-05
5,A6G C8U G37C U54C U69C,< 1e-05
6,G44C C50G G62U,< 1e-05
7,U31C A39U C67A,0.000787 ± 0.00025
8,A12C G35C G44A C50U,< 1e-05
9,C10U U31A G40U U49C C58U G59U C70G,< 1e-05
10,U31G C50A U56G U69G,0.000115 ± 3.6e-05
11,C11G G29U A42C,< 1e-05
12,U30G U49C,< 1e-05
13,U30G A52C C71G,< 1e-05
14,G44A A53U C67A,0.00108 ± 0.00027
15,A6U C34U G40C G59C,< 1e-05
16,A14U A33U C50G G66U,0.0013 ± 0.00063
17,A39G G51C U65C U69A C70A,< 1e-05
18,G9C U69G,< 1e-05
19,G7A C34U G35U G37A G40A,< 1e-05
20,A15C U47G G66U,< 1e-05
21,A12U A15G A42U,0.000151 ± 4.6e-05
22,G35A G41U U54C,< 1e-05
23,C19U U46A,0.0011 ± 0.00031
24,C11U C68G,0.000314 ± 0.00012

# Variants of: B1
# Experiment: self-cleavage kobs at 2500 uM GlcN6P; higher = faster cleavage; RNA array
# Details: with glucosamine-6-phosphate
# In short: as §1
row,Variant,self-cleavage kobs at 2500 uM GlcN6P [s⁻¹]
1,G40C G44C C61U,< 1e-05
2,A33G C34U A42G G51U C58U G59C,< 1e-05
3,U46G U49C U55G,< 1e-05
4,C10U G44U U54G U55C,< 1e-05
5,C11G U31G A39C G41C,< 1e-05
6,G9A C10G C58U,< 1e-05
7,G29A U46A,0.000221 ± 4.8e-05
8,A15G G29U C70G,9.63e-05 ± 3.6e-05
9,C8G G32C G38C U54G,< 1e-05
10,G32C G51C,< 1e-05
11,A14G A36U G41A,< 1e-05
12,C10U A14G U69A,4.32e-05 ± 1.9e-05
13,A12U C16U A33C,0.000381 ± 7.2e-05
14,G40U U45C C67G,7.13e-05 ± 1.7e-05
15,A6G C8U G37C U54C U69C,< 1e-05
16,U31C A39U C67A,0.000712 ± 0.00021
17,A12C G35C G44A C50U,< 1e-05
18,U31G C50A U56G U69G,7.11e-05 ± 1.8e-05
19,C11G G29U A42C,< 1e-05
20,U30G U49C,< 1e-05
21,G44A A53U C67A,0.00591 ± 0.0013
22,A14U A33U C50G G66U,6.05e-05 ± 2.7e-05
23,A39G G51C U65C U69A C70A,< 1e-05

row,Variant,self-cleavage kobs at 2500 uM GlcN6P [s⁻¹]
1,G9C U69G,< 1e-05
2,G7A C34U G35U G37A G40A,< 1e-05
3,G35A G41U U54C,< 1e-05
4,C19U U46A,0.0021 ± 0.00075
5,G13U G41C G60A,< 1e-05
6,G29C A48U G60C,< 1e-05
7,A15C A36C A48U U57C,< 1e-05
8,C10U A36U G51C A53C,< 1e-05
9,G40U C50A U56A C67G C71U,< 1e-05
10,G9A U31G G40C,< 1e-05
11,G7U C11G C16G G32A A53U,< 1e-05
12,G9U G29U A53G,< 1e-05
13,A14C U46C C70U,0.000279 ± 5.2e-05
14,A14G G35U G37A,< 1e-05
15,A12G U30G U45G U46A C68U,< 1e-05
16,A6C G13C U45C,< 1e-05
17,G7A U46C A52U C58A,< 1e-05
18,U30C G40C G62A,< 1e-05
19,U46G G59U G60U,< 1e-05
20,A6G C34U A36C,< 1e-05
21,G38C C50A U65A,< 1e-05
22,C11U A12G U31G,0.000738 ± 0.00012
23,C10U A12U G63C C70A C71A,5.29e-05 ± 1.7e-05

row,Variant,self-cleavage kobs at 2500 uM GlcN6P [s⁻¹]
1,G29C G59A G66C,< 1e-05
2,C11U C34U G40C,< 1e-05
3,G44C A48G,< 1e-05
4,A15G A36G G44U G60C,< 1e-05
5,A33C G37A G40C A42C,< 1e-05
6,A36U U46A U56G,< 1e-05
7,C34U C50G C67A,8.66e-05 ± 2.1e-05
8,A15C G35C U69C,< 1e-05
9,C34A A48G U57C,< 1e-05
10,G37C G62U C71G,< 1e-05
11,C8U A15U G32U U46C,< 1e-05
12,U31A G41U G59U,< 1e-05
13,A12G U49G A64G,9.53e-05 ± 2.8e-05
14,G9U G38C U54G G62C,< 1e-05
15,G29A A48U U69A,< 1e-05
16,G35C C50A C67G,< 1e-05
17,U30A G38A A52G,< 1e-05
18,A12C A42U C67U,7.04e-05 ± 1.6e-05
19,G35U G40U U49G,< 1e-05
20,A36C A42U G63C,< 1e-05
21,C10U G43C C61U C70U,< 1e-05
22,A42G G51C G62A,< 1e-05
23,A14G U57A U65G,4.18e-05 ± 1.4e-05

row,Variant,self-cleavage kobs at 2500 uM GlcN6P [s⁻¹]
1,A36U G44A A48C U57C,< 1e-05
2,C8A G40U A53G,< 1e-05
3,G40U C58A G60U,< 1e-05
4,G9U G29A A42G G60C,< 1e-05
5,G7C G9U G60A,< 1e-05
6,G26U U54C G59U U69G,< 1e-05
7,U47G C58A C68A,0.000116 ± 2.9e-05
8,A12G U31A G38C G40U G41A C58A,< 1e-05
9,C10G G38U,< 1e-05
10,A6U C11A G29A C50U,< 1e-05
11,A6G C16U G40C U46A G66U,< 1e-05
12,A12G U30C C58A,0.000105 ± 3.1e-05
13,G40U C50A U55C,< 1e-05
14,G29A G35C C71A,< 1e-05
15,A33C C50G,0.000218 ± 9.9e-05
16,A15U A33C U45G G51U U55G,< 1e-05
17,A39G A42U C68U,0.000999 ± 0.00036
18,G7U U56G C58U,< 1e-05
19,A6G A12C C16U,0.000167 ± 3.6e-05
20,C34A A39U C50G C67G,0.000353 ± 6.7e-05
21,U31C G32U U54C C58A,0.000137 ± 4.2e-05
22,G38A A42C U56G,< 1e-05
23,A42G G44A G51U,< 1e-05

row,Variant,self-cleavage kobs at 2500 uM GlcN6P [s⁻¹]
1,C11U G35U C67A C70A,5.48e-05 ± 2.6e-05
2,G32U G41U G44A C70U,< 1e-05
3,G29U A33G G40A,< 1e-05
4,G35C A42G U49C,< 1e-05
5,G9U C10U C34U U46A,< 1e-05
6,G13U U47A U56G,0.000242 ± 6e-05
7,C8A G32C G40U U55A,< 1e-05
8,A14U G29U G32C U56C C68A C70U,< 1e-05
9,C16A G41A A42U,< 1e-05
10,A12G C16G G44U,< 1e-05
11,A15U U49G G66U,< 1e-05
12,A6G U55A U57G C61A,< 1e-05
13,G41U A42C C61A,< 1e-05
14,A15C C16G A39C U46G U56C,< 1e-05
15,U31C G43C U65G,< 1e-05
16,A48G C50A U69G,0.000106 ± 3e-05
17,C11G G37A U49G G60U,< 1e-05
18,G32A U45C C71U,7.08e-05 ± 2.9e-05
19,G7C A52U U55G C68G,< 1e-05
20,C8U G37U,< 1e-05
21,G9U G35C A42U,< 1e-05
22,A53G U55G G66U,0.00112 ± 0.00027
23,C8U C10A A15C,< 1e-05

row,Variant,self-cleavage kobs at 2500 uM GlcN6P [s⁻¹]
1,C16A U56G C70U,0.000265 ± 6e-05
2,C16G G44U C70A,< 1e-05
3,A15U C58G C68U,6.36e-05 ± 2.9e-05
4,A15U U30G C58U,2.92e-05 ± 1.5e-05
5,U31G G35C G41A A53U G63A,< 1e-05
6,G32U G63C C71G,6.45e-05 ± 3.2e-05
7,C16U G35U G38U C50A,< 1e-05
8,C10U G32U G41C U55G,< 1e-05
9,G13U U45A A52G,5.37e-05 ± 2.1e-05
10,A15C G32U G38C G59U,< 1e-05
11,U45G U49A U55C,< 1e-05
12,G32C G37U G40U U55G,< 1e-05
13,A39U G41U C50G,< 1e-05
14,A6U G51C U55A G66A,< 1e-05
15,A42C C58A G60U,< 1e-05
16,U45A A48G C67G,8.99e-05 ± 3.1e-05
17,U49G U54G C68G,6.25e-05 ± 2.4e-05
18,G35U G60A C68U,< 1e-05
19,A42U G59U C70G,< 1e-05
20,G9A A14G U56G,5.76e-05 ± 2.3e-05

# Variants of: B1
# Experiment: self-cleavage kobs at 10000 uM GlcN6P; higher = faster cleavage; RNA array
# Details: with glucosamine-6-phosphate
# In short: as §1
row,Variant,self-cleavage kobs at 10000 uM GlcN6P [s⁻¹]
1,G29A U46A,0.000241 ± 3.6e-05
2,C8G G32C G38C U54G,< 1e-05
3,A14G A36U G41A,< 1e-05
4,U31C A39U C67A,0.000846 ± 0.0002
5,G9C U69G,< 1e-05
6,A14C U46C C70U,0.000482 ± 9.4e-05
7,C11U A12G U31G,0.00126 ± 0.0003
8,A12G U49G A64G,7.02e-05 ± 2e-05
9,A14G U57A U65G,6.87e-05 ± 1.5e-05
10,G29A G35C C71A,< 1e-05
11,G7U U56G C58U,< 1e-05
12,A42G G44A G51U,< 1e-05
13,G13U U47A U56G,0.000374 ± 6.2e-05
14,A53G U55G G66U,0.00144 ± 0.00029
